Sequences and labels used below:
T1: Ubiquitin conjugation factor E4 B, UBE4B (Ufd2ortholog) (human, UniProt O95155 1-1302)
T1 sequence (looked up): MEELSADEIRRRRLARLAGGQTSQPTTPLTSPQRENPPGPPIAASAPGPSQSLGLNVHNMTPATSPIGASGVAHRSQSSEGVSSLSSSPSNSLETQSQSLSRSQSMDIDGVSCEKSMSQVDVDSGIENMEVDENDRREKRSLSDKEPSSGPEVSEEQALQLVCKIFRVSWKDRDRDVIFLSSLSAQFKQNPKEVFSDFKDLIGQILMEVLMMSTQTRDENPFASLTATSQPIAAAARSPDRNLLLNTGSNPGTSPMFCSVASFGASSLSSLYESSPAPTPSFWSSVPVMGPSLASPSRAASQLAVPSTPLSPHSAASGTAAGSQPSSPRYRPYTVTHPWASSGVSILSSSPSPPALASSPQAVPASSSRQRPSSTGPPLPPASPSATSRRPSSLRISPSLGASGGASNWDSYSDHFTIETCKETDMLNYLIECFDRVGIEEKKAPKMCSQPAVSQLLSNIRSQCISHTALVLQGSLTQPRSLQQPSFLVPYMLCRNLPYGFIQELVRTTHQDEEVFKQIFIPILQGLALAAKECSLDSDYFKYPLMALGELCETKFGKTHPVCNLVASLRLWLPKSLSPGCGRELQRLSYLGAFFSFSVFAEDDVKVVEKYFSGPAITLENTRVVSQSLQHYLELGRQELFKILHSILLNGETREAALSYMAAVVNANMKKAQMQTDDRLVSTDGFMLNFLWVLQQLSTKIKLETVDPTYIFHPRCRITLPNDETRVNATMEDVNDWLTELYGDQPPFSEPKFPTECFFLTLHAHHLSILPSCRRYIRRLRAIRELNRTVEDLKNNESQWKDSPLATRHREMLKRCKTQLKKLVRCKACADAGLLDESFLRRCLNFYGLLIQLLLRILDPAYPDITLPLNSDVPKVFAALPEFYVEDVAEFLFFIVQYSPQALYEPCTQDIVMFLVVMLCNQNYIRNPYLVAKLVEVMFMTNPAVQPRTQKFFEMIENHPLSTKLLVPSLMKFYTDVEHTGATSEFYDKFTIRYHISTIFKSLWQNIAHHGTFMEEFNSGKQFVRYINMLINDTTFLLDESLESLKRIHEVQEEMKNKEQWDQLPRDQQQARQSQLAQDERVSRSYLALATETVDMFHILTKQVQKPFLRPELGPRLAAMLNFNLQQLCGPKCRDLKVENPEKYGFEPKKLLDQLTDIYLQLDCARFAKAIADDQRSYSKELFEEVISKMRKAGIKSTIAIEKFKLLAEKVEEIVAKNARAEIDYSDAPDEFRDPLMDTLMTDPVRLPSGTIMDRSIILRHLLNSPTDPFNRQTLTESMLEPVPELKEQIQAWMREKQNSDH

T2: endogenous NPL4 (human, UniProt Q8TAT6-2 2-617, limits assumed)
T2 sequence (looked up): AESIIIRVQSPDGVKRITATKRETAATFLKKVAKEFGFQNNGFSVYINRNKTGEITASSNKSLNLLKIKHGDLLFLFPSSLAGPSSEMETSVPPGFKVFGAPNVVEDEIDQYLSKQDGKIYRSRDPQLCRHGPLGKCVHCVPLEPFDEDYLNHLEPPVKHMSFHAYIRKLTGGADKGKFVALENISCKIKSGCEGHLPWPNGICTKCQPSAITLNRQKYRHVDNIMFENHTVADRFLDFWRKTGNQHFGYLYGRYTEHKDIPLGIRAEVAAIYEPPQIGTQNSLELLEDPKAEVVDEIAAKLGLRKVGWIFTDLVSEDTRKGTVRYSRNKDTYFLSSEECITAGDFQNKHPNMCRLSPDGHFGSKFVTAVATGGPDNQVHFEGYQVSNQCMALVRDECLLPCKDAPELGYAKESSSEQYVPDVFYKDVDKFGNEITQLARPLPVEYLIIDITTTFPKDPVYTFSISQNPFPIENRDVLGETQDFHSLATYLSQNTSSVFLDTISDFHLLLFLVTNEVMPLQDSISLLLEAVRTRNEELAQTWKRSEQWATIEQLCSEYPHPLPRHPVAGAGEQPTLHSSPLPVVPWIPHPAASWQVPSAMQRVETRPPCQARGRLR

B1: endogenous UFD1 (other, human, UniProt Q92890-1 1-343, looked up)
chain: MFSFNMFDHPIPRVFQNRFSTQYRCFSVSMLAGPNDRSDVEKGGKIIMPPSALDQLSRLNITYPMLFKLTNKNSDRMTHCGVLEFVADEGICYLPHWMMQNLLLEEDGLVQLETVNLQVATYSKSKFCYLPHWMMQNLLLEEGGLVQVESVNLQVATYSKFQPQSPDFLDITNPKAVLENALRNFACLTTGDVIAINYNEKIYELRVMETKPDKAVSIIECDMNVDFDAPLGYKEPERQVQHEESTEGEADHSGYAGELGFRAFSGSGNRLDGKKKGVEPSPSPIKPGDIKRGIPNYEFKLGKITFIRNSRPLVKKVEEDEAGGRFVAFSGEGQSLRKKGRKP
B2: endogenous UBXD7 (other, human, UniProt O94888 2-489, looked up)
chain: AAHGGSAASSALKGLIQQFTTITGASESVGKHMLEACNNNLEMAVTMFLDGGGIAEEPSTSSASVSTVRPHTEEEVRAPIPQKQEILVEPEPLFGAPKRRRPARSIFDGFRDFQTETIRQEQELRNGGAIDKKLTTLADLFRPPIDLMHKGSFETAKECGQMQNKWLMINIQNVQDFACQCLNRDVWSNEAVKNIIREHFIFWQVYHDSEEGQRYIQFYKLGDFPYVSILDPRTGQKLVEWHQLDVSSFLDQVTGFLGEHGQLDGLSSSPPKKCARSESLIDASEDSQLEAAIRASLQETHFDSTQTKQDSRSDEESESELFSGSEEFISVCGSDEEEEVENLAKSRKSPHKDLGHRKEENRRPLTEPPVRTDPGTATNHQGLPAVDSEILEMPPEKADGVVEGIDVNGPKAQLMLRYPDGKREQITLPEQAKLLALVKHVQSKGYPNERFELLTNFPRRKLSHLDYDITLQEAGLCPQETVFVQERN
B3: Flag-UBXD7 (other, UniProt O94888 1-489, looked up)
chain: MAAHGGSAASSALKGLIQQFTTITGASESVGKHMLEACNNNLEMAVTMFLDGGGIAEEPSTSSASVSTVRPHTEEEVRAPIPQKQEILVEPEPLFGAPKRRRPARSIFDGFRDFQTETIRQEQELRNGGAIDKKLTTLADLFRPPIDLMHKGSFETAKECGQMQNKWLMINIQNVQDFACQCLNRDVWSNEAVKNIIREHFIFWQVYHDSEEGQRYIQFYKLGDFPYVSILDPRTGQKLVEWHQLDVSSFLDQVTGFLGEHGQLDGLSSSPPKKCARSESLIDASEDSQLEAAIRASLQETHFDSTQTKQDSRSDEESESELFSGSEEFISVCGSDEEEEVENLAKSRKSPHKDLGHRKEENRRPLTEPPVRTDPGTATNHQGLPAVDSEILEMPPEKADGVVEGIDVNGPKAQLMLRYPDGKREQITLPEQAKLLALVKHVQSKGYPNERFELLTNFPRRKLSHLDYDITLQEAGLCPQETVFVQERN
notes: Wild-type plasmid in pCMV5B; expressed in 293 or HeLa cells and pulled down on anti-Flag beads; also called RDB 2155; not shown: N-terminal Flag tag
B4: Flag-UBXD7ΔUBX (other, not shown: small tags and cut ends)
chain: MAAHGGSAASSALKGLIQQFTTITGASESVGKHMLEACNNNLEMAVTMFLDGGGIAEEPSTSSASVSTVRPHTEEEVRAPIPQKQEILVEPEPLFGAPKRRRPARSIFDGFRDFQTETIRQEQELRNGGAIDKKLTTLADLFRPPIDLMHKGSFETAKECGQMQNKWLMINIQNVQDFACQCLNRDVWSNEAVKNIIREHFIFWQVYHDSEEGQRYIQFYKLGDFPYVSILDPRTGQKLVEWHQLDVSSFLDQVTGFLGEHGQLDGLSSSPPKKCARSESLIDASEDSQLEAAIRASLQETHFDSTQTKQDSRSDEESESELFSGSEEFISVCGSDEEEEVENLAKSRKSPHKDLGHRKEENRRPLTEPPVRTDPGTATNHQGLPAVDSEILEMPPEKAD
notes: also called UBXD7(1-400); truncated UBXD7
B5: Flag-p47 (other, UniProt O35987 1-370, looked up)
chain: MAEERQDALREFVAVTGAEEDRARFFLESAGWDLQIALASFYEDGGDEDIVTISQATPSSVSRGTAPSDNRVTSFRDLIHDQDEEEEEEEGQRFYAGGSERSGQQIVGPPRKKSPNELVDDLFKGAKEHGAVAVERVTKSPGETSKPRPFAGGGYRLGAAPEEESAYVAGERRRHSGQDVHVVLKLWKTGFSLDNGDLRSYQDPSNAQFLESIRRGEVPAELRRLAHGGQVNLDMEDHRDEDFVKPKGAFKAFTGEGQKLGSTAPQVLNTSSPAQQAENEAKASSSILINEAEPTTNIQIRLADGGRLVQKFNHSHRISDIRLFIVDARPAMAATSFVLMTTFPNKELADENQTLKEANLLNAVIVQRLT
notes: also called RDB 2148; not shown: N-terminal Flag tag

For the assay “Flag-p47”, the target named is B5. As to the kind of experiment: Flag co-IP, mass spectrometry and immunoblotting.
Assay [1] addresses T3, endogenous p97 (human, UniProt P55072 2-806).
T3 construct: also called VCP
As to the kind of experiment: Superdex 200 gel filtration of HeLa extracts, western blot. On the technique in general: Size exclusion chromatography separates by hydrodynamic size, large species first.
From the text: Luc—luciferase (C) HeLa cell extracts were fractionated on a Superdex 200 gel filtration column. Individual fractions were concentrated by TCA precipitation and subjected to western blotting using specific antibodies. All proteins were endogenously expressed.

In assay [2] the target is T1, Ubiquitin conjugation factor E4 B, …. As to the kind of experiment: co-IP, MudPIT MS.
The target of assay [3] is T3, endogenous p97. Put plainly: Flag co-IP, 293 cells, MudPIT MS. On the procedure: (§1) For immunoprecipitation experiments, the cells were lysed in buffer A (50 mM HEPES/KOH, pH 7.5; 5 mM Mg(OAc)₂; 70 mM KOAc; 0.2% Triton X-100; 10% glycerol; 0.2 mM EDTA; protease inhibitors) and incubated with anti-Flag agarose beads (Sigma) or anti-Myc sepharose beads (Covance).
(§2) Mass spectrometrical sample analysis was performed as described previously (Graumann et al., 2004) using a high-pressure liquid chromatography pump (Agilent) in line to a LCQ DecaXP electrospray ion trap mass spectrometer (ThermoFinnigan). In brief, 2-4 mg of protein extract were incubated with anti-Flag or anti-Myc beads and the immunoprecipitated proteins were eluted with saturated urea. The eluates were then proteolitically digested using sequentially endoproteinase Lys-C and trypsin. The resulting peptide mixtures were pressure-loaded onto triphasic microcapillary columns and sample separation was achieved using a chromatography program consisting of six salt steps, each followed by an organic gradient. The eluting peptides were electrosprayed into the mass spectrometer and the column eluate was continuously analyzed. One full-range mass scan ([…]) was followed by three data-dependent tandem mass spectrometry (MS/MS) spectra. Sequence database matching was performed against the IPI human database (Kersey et al., 2004) version 3.15.1 using Sequest (Eng et al., 1994) and the results were filtered with DTASelect (Tabb et al., 2002), using the parameters indicated in Graumann et al. (2004).

The target of assay [4] is T3, endogenous p97. Put plainly: Flag co-IP from HeLa cells, western blot. (In general: In western blotting, separated proteins are transferred to a membrane and probed.)
The target in the next assay is T4, Cullin 1 (human, UniProt Q13616 1-776, limits assumed).
T4 construct: also called CUL1
As to the kind of experiment: Flag co-IP, HeLa cells, western blot.

In another assay the target is T5, Cullin 2 (human, UniProt Q13617 1-745).
T5 construct: also called CUL2
As to the kind of experiment: Flag co-IP, HeLa cells, western blot.

The target in assay [5] is T2, endogenous NPL4. As to the kind of experiment: Flag co-IP, 293 cells, MudPIT MS. On the procedure: as §1, §2
Assay [6] addresses T2, endogenous NPL4. Put plainly: Flag co-IP, mass spectrometry and immunoblotting.

T3 sequence (P55072 2-806 limits assumed): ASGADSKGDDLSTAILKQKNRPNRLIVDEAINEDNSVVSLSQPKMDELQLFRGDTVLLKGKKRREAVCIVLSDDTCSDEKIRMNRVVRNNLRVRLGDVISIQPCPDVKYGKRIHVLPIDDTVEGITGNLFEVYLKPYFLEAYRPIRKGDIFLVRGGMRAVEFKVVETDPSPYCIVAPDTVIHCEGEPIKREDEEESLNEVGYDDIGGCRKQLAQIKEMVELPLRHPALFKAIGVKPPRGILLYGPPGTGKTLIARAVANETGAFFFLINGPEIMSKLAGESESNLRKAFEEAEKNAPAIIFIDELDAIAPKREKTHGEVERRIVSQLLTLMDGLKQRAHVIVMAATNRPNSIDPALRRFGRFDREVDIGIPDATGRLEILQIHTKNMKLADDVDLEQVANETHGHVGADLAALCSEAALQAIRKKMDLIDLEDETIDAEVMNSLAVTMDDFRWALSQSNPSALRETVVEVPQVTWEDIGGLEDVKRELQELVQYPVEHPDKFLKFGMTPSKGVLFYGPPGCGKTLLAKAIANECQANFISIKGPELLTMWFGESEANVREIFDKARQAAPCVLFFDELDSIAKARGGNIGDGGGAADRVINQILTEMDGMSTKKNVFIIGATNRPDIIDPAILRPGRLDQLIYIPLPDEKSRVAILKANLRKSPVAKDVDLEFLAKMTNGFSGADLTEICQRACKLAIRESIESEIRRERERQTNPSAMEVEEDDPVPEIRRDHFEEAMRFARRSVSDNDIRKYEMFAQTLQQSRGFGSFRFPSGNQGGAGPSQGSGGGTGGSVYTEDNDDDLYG
T5 sequence (Q13617 whole entry): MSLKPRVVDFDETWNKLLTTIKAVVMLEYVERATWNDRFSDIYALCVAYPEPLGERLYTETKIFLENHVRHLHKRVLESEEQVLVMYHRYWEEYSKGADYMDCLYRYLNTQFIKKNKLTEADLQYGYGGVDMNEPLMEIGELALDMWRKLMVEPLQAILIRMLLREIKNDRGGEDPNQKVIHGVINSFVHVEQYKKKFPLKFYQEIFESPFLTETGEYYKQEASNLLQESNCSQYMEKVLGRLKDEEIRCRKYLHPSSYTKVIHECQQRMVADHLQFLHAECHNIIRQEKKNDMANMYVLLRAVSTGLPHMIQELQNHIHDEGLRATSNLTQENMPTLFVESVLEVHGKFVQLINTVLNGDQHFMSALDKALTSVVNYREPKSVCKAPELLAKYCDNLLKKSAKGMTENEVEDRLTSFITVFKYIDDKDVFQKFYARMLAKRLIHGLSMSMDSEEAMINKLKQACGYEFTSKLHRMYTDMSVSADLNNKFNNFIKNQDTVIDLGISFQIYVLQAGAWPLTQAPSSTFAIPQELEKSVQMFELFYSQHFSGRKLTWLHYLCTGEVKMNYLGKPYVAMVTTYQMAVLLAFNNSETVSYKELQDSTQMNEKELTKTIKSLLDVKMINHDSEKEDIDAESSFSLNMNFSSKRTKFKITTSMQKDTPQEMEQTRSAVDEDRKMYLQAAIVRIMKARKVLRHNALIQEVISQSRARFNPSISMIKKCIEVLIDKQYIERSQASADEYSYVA
T4 sequence (Q13616 whole entry): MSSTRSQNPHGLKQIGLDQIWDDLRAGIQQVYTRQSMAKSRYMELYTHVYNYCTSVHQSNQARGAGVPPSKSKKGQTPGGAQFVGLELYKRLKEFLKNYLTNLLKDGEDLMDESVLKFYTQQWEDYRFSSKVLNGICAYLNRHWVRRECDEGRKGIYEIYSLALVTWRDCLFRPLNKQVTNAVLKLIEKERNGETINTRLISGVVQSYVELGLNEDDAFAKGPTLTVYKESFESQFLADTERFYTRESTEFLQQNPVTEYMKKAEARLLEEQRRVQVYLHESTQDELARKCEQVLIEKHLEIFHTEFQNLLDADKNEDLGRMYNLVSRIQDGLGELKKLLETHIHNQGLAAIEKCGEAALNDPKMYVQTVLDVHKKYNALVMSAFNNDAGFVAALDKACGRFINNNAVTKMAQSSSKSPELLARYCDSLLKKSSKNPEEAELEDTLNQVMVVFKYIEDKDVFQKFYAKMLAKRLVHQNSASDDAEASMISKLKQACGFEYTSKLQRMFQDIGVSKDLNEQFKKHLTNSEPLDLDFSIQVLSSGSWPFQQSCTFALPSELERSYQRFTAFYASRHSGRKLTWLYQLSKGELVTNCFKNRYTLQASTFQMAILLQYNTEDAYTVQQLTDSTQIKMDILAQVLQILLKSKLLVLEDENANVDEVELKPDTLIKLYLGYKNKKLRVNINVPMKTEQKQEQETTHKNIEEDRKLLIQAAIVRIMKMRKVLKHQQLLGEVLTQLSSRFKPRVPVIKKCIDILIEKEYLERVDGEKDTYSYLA

Regarding B1, the binding result with Flag-p47 is on record as “no binding”.
With B2, in the assay with endogenous p97 [1], the binding result is “binds”.
For B3, in [2], the binding result is “no binding”. In the assay with endogenous p97 [3], the sequence count was 77, the sequence coverage is 61.2% and the spectrum count stood at 375.
B4: the binding result in the assay with endogenous p97 [4] is recorded as “no binding”; with Cullin 1, “binds”; with Cullin 2, “binds”.
In the assay with endogenous NPL4 [5], B5 displayed a sequence count of 2, a sequence coverage of 6% and a spectrum count of 2. In the assay with endogenous p97 [3], this molecule returned a sequence count of 172, a sequence coverage of 82.7% and a spectrum count of 1610. For the same molecule, the binding result with endogenous NPL4 [6] is listed as “no binding”.

(Values after patent US20090192084A1 (CALIFORNIA INSTITUTE OF TECHNOLOGY, published 2009).)
